Source: the supplement of paper PMC5998384

Columns and labels:
HeLa Kyoto [1] = test: solubility in G1/S (NP-40 vs SDS abundance) (log2 ratio); higher = more soluble; settings: cell cycle stage: G1/S
HeLa Kyoto [2] = test: melting temperature (median over replicates), in situ; higher = more thermally stable
HeLa Kyoto [3] = test: solubility change mitosis vs G1/S (difference of NP-40 vs SDS log2 ratios) (log2 ratio difference); higher = more soluble in mitosis
HeLa Kyoto [4] = test: thermal stability score vs G1/S (z-score of summed log2 fold changes over temperatures); higher = more thermally stable than in G1/S
[5] = cell cycle stage: early G1 (4.5 h after nocodazole release)
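Wherever melting temperature (median over replicates), in situ is given: HeLa Kyoto cells synchronized by double thymidine or nocodazole block, proteins quantified by TMT10plex mass spectrometry, three independent biological replicates.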
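Wherever solubility change mitosis vs G1/S (difference of NP-40 vs SDS log2 ratios) is given: synchronized HeLa Kyoto cells (double thymidine block for G1/S, nocodazole release for mitosis), protein amounts in NP-40 versus SDS lysates quantified by mass spectrometry, three biological replicates.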
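Wherever solubility in G1/S (NP-40 vs SDS abundance) is given: HeLa Kyoto cells arrested at G1/S by double thymidine block, proteins quantified by TMT10plex mass spectrometry in mild NP-40 versus SDS extracts, three biological replicates.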
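Wherever thermal stability score vs G1/S (z-score of summed log2 fold changes over temperatures) is given: synchronized HeLa Kyoto cells, proteins quantified by TMT10plex mass spectrometry, three biological replicates, mitosis taken 0.5 h after nocodazole release, G1/S directly after double thymidine block.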

| Substance | solubility in G1/S (log2) (HeLa Kyoto [1]) | melting temperature (HeLa Kyoto [2]; cell cycle stage: G1/S) [°C] | melting temperature (HeLa Kyoto [2]; cell cycle stage: mitosis) [°C] | solubility change mitosis (log2) (HeLa Kyoto [3]) | thermal stability score (HeLa Kyoto [4]; [5]) | thermal stability score (HeLa Kyoto [4]; cell cycle stage: mitosis) |
| --- | --- | --- | --- | --- | --- | --- |
| MAVAVAMAGALIGSEPGPAEELAKLEYLSLVSKVCTELDNHLGINDKDLAEFVISLAEKNTTFDTFKASLVKNGAEFTDSLISNLLRLIQTMRPPAKPSTSKDPVVKPKTEKEKLKELFPVLCQPDNPSVRTMLDEDDVKVAVDVLKELEALMPSAAGQEKQRDAEHRDRTKKKKRSRSRDRNRDRDRDRERNRDRDHKRRHRSRSRSRSRTRERNKVKSRYRSRSRSQSPPKDRKDRDKYGERNLDRWRDKHVDRPPPEEPTIGDIYNGKVTSIMQFGCFVQLEGLRKRWEGLVHISELRREGRVANVADVVSKGQRVKVKVLSFTGTKTSLSMKDVDQETGEDLNPNRRRNLVGETNEETSMRNPDRPTHLSLVSAPEVEDDSLERKRLTRISDPEKWEIKQMIAANVLSKEEFPDFDEETGILPKVDDEEDEDLEIELVEEEPPFLRGHTKQSMDMSPIKIVKNPDGSLSQAAMMQSALAKERRELKQAQREAEMDSIPMGLNKHWVDPLPDAEGRQIAANMRGIGMMPNDIPEWKKHAFGGNKASYGKKTQMSILEQRESLPIYKLKEQLVQAVHDNQILIVIGETGSGKTTQITQYLAEAGYTSRGKIGCTQPRRVAAMSVAKRVSEEFGCCLGQEVGYTIRFEDCTSPETVIKYMTDGMLLRECLIDPDLTQYAIIMLDEAHERTIHTDVLFGLLKKTVQKRQDMKLIVTSATLDAVKFSQYFYEAPIFTIPGRTYPVEILYTKEPETDYLDASLITVMQIHLTEPPGDILVFLTGQEEIDTACEILYERMKSLGPDVPELIILPVYSALPSEMQTRIFDPAPPGSRKVVIATNIAETSLTIDGIYYVVDPGFVKQKVYNSKTGIDQLVVTPISQAQAKQRAGRAGRTGPGKCYRLYTERAYRDEMLTTNVPEIQRTNLASTVLSLKAMGINDLLSFDFMDAPPMETLITAMEQLYTLGALDDEGLLTRLGRRMAEFPLEPMLCKMLIMSVHLGCSEEMLTIVSMLSVQNVFYRPKDKQALADQKKAKFHQTEGDHLTLLAVYNSWKNNKFSNPWCYENFIQARSLRRAQDIRKQMLGIMDRHKLDVVSCGKSTVRVQKAICSGFFRNAAKKDPQEGYRTLIDQQVVYIHPSSALFNRQPEWVVYHELVLTTKEYMREVTTIDPRWLVEFAPAFFKVSDPTKLSKQKKQQRLEPLYNRYEEPNAWRISRAFRRR [DHX8] | -0.655 | 49.9 | 50.7 | 0.24 | 1.86 | 4.58 |
| MSERCCSRYSSGASIGCTPTSTQAKMVSKRIAQETFDAAVRENIEEFAMGPEEAVKEAVEQFESQGVDLSNIVKTAPKVSADGSQEPTHDILQMLSDLQESVASSRPQEVSAYLTRFCDQCKQDKACRFLAAQKGAYPIIFTAWKLATAGDQGLLLQSLNALSVLTDGQPDLLDAQGLQLLVATLTQNADEADLTCSGIRCVRHACLKHEQNRQDLVKAGVLPLLTGAITHHGHHTDVVREACWALRVMTFDDDIRVPFGHAHNHAKMIVQENKGLKVLIEATKAFLDNPGILSELCGTLSRLAIRNEFCQEVVDLGGLSILVSLLADCNDHQMRDQSGVQELVKQVLSTLRAIAGNDDVKDAIVRAGGTESIVAAMTQHLTSPQVCEQSCAALCFLALRKPDNSRIIVEGGGAVAALQAMKAHPQKAGVQKQACMLIRNLVAHGQAFSKPILDLGAEALIMQARSAHRDCEDVAKAALRDLGCHVELRELWTGQRGNLAP [ARMC6] | 0.319 | 46.8 | 47 | -0.0993 | 0.787 | 2.44 |
| MAGSYPEGAPAILADKRQQFGSRFLSDPARVFHHNAWDNVEWSEEQAAAAERKVQENSIQRVCQEKQVDYEINAHKYWNDFYKIHENGFFKDRHWLFTEFPELAPSQNQNHLKDWFLENKSEVCECRNNEDGPGLIMEEQHKCSSKSLEHKTQTPPVEENVTQKISDLEICADEFPGSSATYRILEVGCGVGNTVFPILQTNNDPGLFVYCCDFSSTAIELVQTNSEYDPSRCFAFVHDLCDEEKSYPVPKGSLDIIILIFVLSAVVPDKMQKAINRLSRLLKPGGMVLLRDYGRYDMAQLRFKKGQCLSGNFYVRGDGTRVYFFTQEELDTLFTTAGLEKVQNLVDRRLQVNRGKQLTMYRVWIQCKYCKPLLSSTS [METTL2B] | 0.19 | 48.6 | 48.9 | -0.231 | -0.391 | 1.29 |
| ZNF638 | -0.709 | 48.1 | 50.2 | 0.363 | 1.39 | 4.74 |
| MERKISRIHLVSEPSITHFLQVSWEKTLESGFVITLTDGHSAWTGTVSESEISQEADDMAMEKGKYVGELRKALLSGAGPADVYTFNFSKESCYFFFEKNLKDVSFRLGSFNLEKVENPAEVIRELICYCLDTIAENQAKNEHLQKENERLLRDWNDVQGRFEKCVSAKEALETDLYKRFILVLNEKKTKIRSLHNKLLNAAQEREKDIKQEGETAICSEMTADRDPVYDESTDEESENQTDLSGLASAAVSKDDSIISSLDVTDIAPSRKRRQRMQRNLGTEPKMAPQENQLQEKENSRPDSSLPETSKKEHISAENMSLETLRNSSPEDLFDEI [XRCC4] | 0.0124 | 55.2 | 54.7 | -0.0112 | -0.551 | -0.497 |
| MGFLQLLVVAVLASEHRVAGAAEVFGNSSEGLIEFSVGKFRYFELNRPFPEEAILHDISSNVTFLIFQIHSQYQNTTVSFSPTLLSNSSETGTASGLVFILRPEQSTCTWYLGTSGIQPVQNMAILLSYSERDPVPGGCNLEFDLDIDPNIYLEYNFFETTIKFAPANLGYARGVDPPPCDAGTDQDSRWRLQYDVYQYFLPENDLTEEMLLKHLQRMVSVPQVKASALKVVTLTANDKTSVSFSSLPGQGVIYNVIVWDPFLNTSAAYIPAHTYACSFEAGEGSCASLGRVSSKVFFTLFALLGFFICFFGHRFWKTELFFIGFIIMGFFFYILITRLTPIKYDVNLILTAVTGSVGGMFLVAVWWRFGILSICMLCVGLVLGFLISSVTFFTPLGNLKIFHDDGVFWVTFSCIAILIPVVFMGCLRILNILTCGVIGSYSVVLAIDSYWSTSLSYITLNVLKRALNKDFHRAFTNVPFQTNDFIILAVWGMLAVSGITLQIRRERGRPFFPPHPYKLWKQERERRVTNILDPSYHIPPLRERLYGRLTQIKGLFQKEQPAGERTPLLL [TM7SF3] | -0.147 | 56.8 | 55.3 | -0.244 | -2.81 | -4.36 |
| MRLRRLALFPGVALLLAAARLAAASDVLELTDDNFESRISDTGSAGLMLVEFFAPWCGHCKRLAPEYEAAATRLKGIVPLAKVDCTANTNTCNKYGVSGYPTLKIFRDGEEAGAYDGPRTADGIVSHLKKQAGPASVPLRTEEEFKKFISDKDASIVGFFDDSFSEAHSEFLKAASNLRDNYRFAHTNVESLVNEYDDNGEGIILFRPSHLTNKFEDKTVAYTEQKMTSGKIKKFIQENIFGICPHMTEDNKDLIQGKDLLIAYYDVDYEKNAKGSNYWRNRVMMVAKKFLDAGHKLNFAVASRKTFSHELSDFGLESTAGEIPVVAIRTAKGEKFVMQEEFSRDGKALERFLQDYFDGNLKRYLKSEPIPESNDGPVKVVVAENFDEIVNNENKDVLIEFYAPWCGHCKNLEPKYKELGEKLSKDPNIVIAKMDATANDVPSPYEVRGFPTIYFSPANKKLNPKKYEGGRELSDFISYLQREATNPPVIQEEKPKKKKKAQEDL [PDIA3] | 0.299 | 53.3 | 53.7 | 0.000907 | 4.82 | 4.63 |
| MKIFVGNVDGADTTPEELAALFAPYGTVMSCAVMKQFAFVHMRENAGALRAIEALHGHELRPGRALVVEMSRPRPLNTWKIFVGNVSAACTSQELRSLFERRGRVIECDVVKDYAFVHMEKEADAKAAIAQLNGKEVKGKRINVELSTKGQKKGPGLAVQSGDKTKKPGAGDTAFPGTGGFSATFDYQQAFGNSTGGFDGQARQPTPPFFGRDRSPLRRSPPRASYVAPLTAQPATYRAQPSVSLGAAYRAQPSASLGVGYRTQPMTAQAASYRAQPSVSLGAPYRGQLASPSSQSAAASSLGPYGGAQPSASALSSYGGQAAAASSLNSYGAQGSSLASYGNQPSSYGAQAASSYGVRAAASSYNTQGAASSLGSYGAQAASYGAQSAASSLAYGAQAASYNAQPSASYNAQSAPYAAQQAASYSSQPAAYVAQPATAAAYASQPAAYAAQATTPMAGSYGAQPVVQTQLNSYGAQASMGLSGSYGAQSAAAATGSYGAAAAYGAQPSATLAAPYRTQSSASLAASYAAQQHPQAAASYRGQPGNAYDGAGQPSAAYLSMSQGAVANANSTPPPYERTRLSPPRASYDDPYKKAVAMSKRYGSDRRLAELSDYRRLSESQLSFRRSPTKSSLDYRRLPDAHSDYARYSGSYNDYLRAAQMHSGYQRRM [RBM14] | -0.765 | 47.3 | 46.1 | 0.332 | 1.48 | 2.24 |
| MIEQQKRKGPELPLVPVKRQRHELLLGAGSGPGAGQQQATPGALLQAGPPRCSSLQAPIMLLSGHEGEVYCCKFHPNGSTLASAGFDRLILLWNVYGDCDNYATLKGHSGAVMELHYNTDGSMLFSASTDKTVAVWDSETGERVKRLKGHTSFVNSCYPARRGPQLVCTGSDDGTVKLWDIRKKAAIQTFQNTYQVLAVTFNDTSDQIISGGIDNDIKVWDLRQNKLTYTMRGHADSVTGLSLSSEGSYLLSNAMDNTVRVWDVRPFAPKERCVKIFQGNVHNFEKNLLRCSWSPDGSKIAAGSADRFVYVWDTTSRRILYKLPGHAGSINEVAFHPDEPIIISASSDKRLYMGEIQ [SNRNP40] | -1.09 | 49.9 | 50.7 | 0.366 | -0.469 | -0.465 |
| MSPARRCRGMRAAVAASVGLSEGPAGSRSGRLFRPPSPAPAAPGARLLRLPGSGAVQAASPERAGWTEALRAAVAELRAGAVVAVPTDTLYGLACAASCSAALRAVYRLKGRSEAKPLAVCLGRVADVYRYCRVRVPEGLLKDLLPGPVTLVMERSEELNKDLNPFTPLVGIRIPDHAFMQDLAQMFEGPLALTSANLSSQASSLNVEEFQDLWPQLSLVIDGGQIGDGQSPECRLGSTVVDLSVPGKFGIIRPGCALESTTAILQQKYGLLPSHASYL [YRDC] | 0.378 | 52.3 | 52.7 | -0.0312 | 0.325 | 0.668 |
| MGGFFSSIFSSLFGTREMRILILGLDGAGKTTILYRLQVGEVVTTIPTIGFNVETVTYKNLKFQVWDLGGQTSIRPYWRCYYSNTDAVIYVVDSCDRDRIGISKSELVAMLEEEELRKAILVVFANKQDMEQAMTSSEMANSLGLPALKDRKWQIFKTSATKGTGLDEAMEWLVETLKSRQ [ARL1] | -0.143 | 50.3 | 50.9 | -0.202 | 2.08 | -0.342 |
| MHPRRPDGFDGLGYRGGARDEQGFGGAFPARSFSTGSDLGHWVTTPPDIPGSRNLHWGEKSPPYGVPTTSTPYEGPTEEPFSSGGGGSVQGQSSEQLNRFAGFGIGLASLFTENVLAHPCIVLRRQCQVNYHAQHYHLTPFTVINIMYSFNKTQGPRALWKGMGSTFIVQGVTLGAEGIISEFTPLPREVLHKWSPKQIGEHLLLKSLTYVVAMPFYSASLIETVQSEIIRDNTGILECVKEGIGRVIGMGVPHSKRLLPLLSLIFPTVLHGVLHYIISSVIQKFVLLILKRKTYNSHLAESTSPVQSMLDAYFPELIANFAASLCSDVILYPLETVLHRLHIQGTRTIIDNTDLGYEVLPINTQYEGMRDCINTIRQEEGVFGFYKGFGAVIIQYTLHAAVLQITKIIYSTLLQNNI [SLC25A46] | 0.0119 | 54.2 | 53.8 | -0.0414 | -2.69 | -1.76 |
| MSCAGAAAAPRLWRLRPGARRSLSAYGRRTSVRFRSSGMTLDNISRAAVDRIIRVDHAGEYGANRIYAGQMAVLGRTSVGPVIQKMWDQEKDHLKKFNELMVTFRVRPTVLMPLWNVLGFALGAGTALLGKEGAMACTVAVEESIAHHYNNQIRTLMEEDPEKYEELLQLIKKFRDEELEHHDIGLDHDAELAPAYAVLKSIIQAGCRVAIYLSERL [COQ7] | -0.0496 | 56.1 | 53.4 | -0.0504 | -2.12 | -0.639 |
